This note sets out measurements from patent publication US20080131962.

Data set [1] concerns ZFN pair L+/R+ in cells (synthetic construct). The data set is described as follows: cell_activity. The following applies: forced homodimer of cleavage domains.
In data set [2] the test system is ZFN pair L+/R- in cells (synthetic construct). Kind of data set: cell_activity. The following applies: HEK293 GFP gene correction.
Data set [3] relates to ZFN pair L-/R+ in cells (synthetic construct). Kind of data set: cell_activity. The following applies: HEK293 GFP gene correction.
Data set [4] relates to ZFN pair L-/R- in cells (synthetic construct). Kind of data set: cell_activity. As to conditions: forced homodimer of cleavage domains.
The subject of data set [5] is ZFN pair Lwt/Rwt in cells (synthetic construct). The data set is described as follows: cell_activity. The following applies: HEK293 GFP gene correction.
Data set [6] has as its system ZFN pair E490K/E490K (synthetic construct). The data set is described as follows: cleavage_in_vitro. As to conditions: same variant on L and R.
Data set [7] relates to ZFN pair E490K/Q486E (synthetic construct). Kind of data set: cleavage_in_vitro. The following applies: average of both orientations.
Data set [8] relates to ZFN pair E490K/Q486E:I499L (synthetic construct). Kind of data set: cleavage_in_vitro. As to conditions: average of both orientations.
For data set [9], the system named is ZFN pair E490K/wt (synthetic construct). Kind of data set: cleavage_in_vitro. As to conditions: average of both orientations.
Data set [10] deals with ZFN pair E490K:I538K/Q486E (synthetic construct). The data set is described as follows: cleavage_in_vitro. As to conditions: average of both orientations.
In data set [11] the test system is ZFN pair E490K:I538K/wt (synthetic construct). The data set is described as follows: cleavage_in_vitro. As to conditions: average of both orientations.
Data set [12] has as its system ZFN pair L+/R+ (E490K:I538K both) (synthetic construct). Kind of data set: cleavage_in_vitro. As to conditions: cleavage lost through lack of dimerization, not of ZFP binding.
For data set [13], the system named is ZFN pair L+/R- (L-E490K:I538K, R-Q486E:I499L) (synthetic construct). Kind of data set: cleavage_in_vitro.
For data set [14], the system named is ZFN pair L-/R+ (L-Q486E:I499L, R-E490K:I538K) (synthetic construct). Kind of data set: cleavage_in_vitro. As to conditions: 2 mM MgCl2, 37 C 2 h.
In data set [15] the test system is ZFN pair L-/R- (Q486E:I499L both) (synthetic construct). Kind of data set: cleavage_in_vitro. The following applies: cleavage lost through lack of dimerization, not of ZFP binding.
The subject of data set [16] is ZFN pair Lwt/Rwt (wild-type FokI cleavage domains) (synthetic construct). The data set is described as follows: cleavage_in_vitro. As to conditions: six-fold diluted ZFN, FokI buffer pH 8.5, 2 mM MgCl2, 10 uM ZnCl2, 37 C 2 h.
The subject of data set [17] is ZFN pair Q486E/Q486E (synthetic construct). The data set is described as follows: cleavage_in_vitro. As to conditions: same variant on L and R.
For data set [18], the system named is ZFN pair Q486E/wt (synthetic construct). The data set is described as follows: cleavage_in_vitro. The following applies: average of both orientations.
Data set [19] relates to ZFN pair Q486E:I499L/wt (synthetic construct). Kind of data set: cleavage_in_vitro. As to conditions: average of both orientations; printed I449L in table.

Consider “TGTTCGGAGCCGCTTTAACCCACTCTGTGGAAGTGCT (double strand) [IL2Rgamma ZFN target in eGFP reporter or endogenous locus]”, for which the activity (% GFP-positive cells) in data set [1] is 0.02; in [2] it was 1.98; in data set [3], 1.71; in [4], 0.12; in data set [5], 1.27.

Turning to “TGTTCGGAGCCGCTTTAACCCACTCTGTGGAAGTGCT (double strand) [LR heterodimer target]”, the cleavage activity relative to wild type (fraction of wt/wt) in data set [6] was 0.96; in data set [7], 0.96; in data set [8], 0.97; in [9] it was 1; in data set [10], 0.32; in data set [11], 0.74. In addition, the cleavage activity relative to wild type (fraction of wt/wt) in data set [12] amounted to 0; in data set [13] (average of L+/R- and L-/R+, printed I449L in table) it was 0.48; in data set [15], 0; in data set [17], 0.19; in [18] it was 0.68; in [19] it was 0.48. Moreover, the activity stood at 50 % cleaved in data set [13] (2 mM MgCl2, 37 C 2 h); 50 % cleaved in data set [14]; 61 % cleaved in [16].
